Values of other authors, collected in paper PMC2846645.
Read-outs that look alike come from different tables or passages of the source.

Assays:
Experiment in all cases: surface plasmon resonance
[1] = target: GABAA receptor beta3 subunit 400-412 (UniProt P28472)
[2] = target: GABAA receptor gamma2 subunit Y365/Y367 motif (UniProt P18507)
[3] = target: GABAA receptor beta3 subunit 400-412 (UniProt P28472); remark: listed apart in the source

- Kd [1]: 300 nM
- Kd [2]: 40 nM
- Kd [3]: 1900 nM
Substance: AP2 mu2 (from UniProt Q96CW1)
